Results from publication PMC4198210.

Target: phosphorylated PhoP-His (recombinant N-terminal His-tag PhoP protein of Photorhabdus luminescens TT01, phosphorylated in vitro with acetyl phosphate) (Photorhabdus luminescens TT01)
Test: Mn2+-Phos-tag SDS-PAGE; 4 ug purified PhoP-His incubated in vitro with 50 mM acetyl phosphate (lane 2) or without (lane 1) in the EMSA buffer; precast 12.5% polyacrylamide Mn2+-Phos-tag gel run at 4°C and 150 V; Coomassie stain

phosphorylated PhoP-His (recombinant N-terminal His-tag PhoP protein of Photorhabdus luminescens TT01, phosphorylated in vitro with acetyl phosphate) (natural protein)
stoichiometry N: 2
